# Assay results from doi:10.1101/173674.
# Experiments:
# Assay in all cases: crystal structure
# [1] = biological target: HpiC1 F138S (Fischerella sp. ATCC 43239)
# [2] = biological target: HpiC1 W73M/K132M selenomethionine derivative (Fischerella sp. ATCC 43239)
# [3] = biological target: HpiC1 Y101F (Fischerella sp. ATCC 43239)
# [4] = biological target: HpiC1 Y101F/F138S (Fischerella sp. ATCC 43239)
# [5] = biological target: HpiC1 Y101S (Fischerella sp. ATCC 43239)
# [6] = biological target: HpiC1 native (Fischerella sp. ATCC 43239)
substance,measurement,setting,value
HpiC1 F138S (enzyme),stoichiometry N,[1],2
HpiC1 W73M/K132M selenomethionine derivative (enzyme),stoichiometry N,[2],2
HpiC1 Y101F (enzyme),stoichiometry N,[3],2
HpiC1 Y101F/F138S (enzyme),stoichiometry N,[4],2
HpiC1 Y101S (enzyme),stoichiometry N,[5],2
HpiC1 native (enzyme),stoichiometry N,[6],2
